Measurements published in paper PMC9784564 (2022).

Target: CoV-2-RBD of the SARS-CoV-2 Inhibitor Screening Kit (SARS-CoV-2, UniProt P0DTC2 319-541)
Experiment: ELISA

B1: CB79 (antibody, V domains shown)
VH: QVHLVQSGAEVKKPGASVKVSCKASGYTFTDYYMHWVRQAPGQGLEWMGRINPNSGGTNYPETLQGRVTMTTDTSTSTAYLEVRSLTPDDTAVYYCARVPYCSSTSCYSDWYFDLWGQGTLVTVSS
VL: DIVLTQSPLSLPVTPGETASISCRSSQSILDSDDGNTYLDWYLQKPGQSPQLLIYSLSYRASGVPDRFSASGSGTDFTLKISGVEAEDVGVYYCMQRIEFPLTFGGGTKLEIK
IC50: 0.14 µg/mL
